Laboratory results from publication PMC7656253, “Recovery of motor function of chronic spinal cord injury by extracellular pyruvate kinase isoform M2 and the underlying mechanism” (Scientific Reports, 2020).

Target: T1, Recombinant human valosin-containing protein (VCP) (human, UniProt P55072 1-806)
T1 construct: valosin-containing protein (VCP), human, recombinant; Commercial protein; The supplier is printed as 'Abnoba', probably Abnova; No catalogue number or tag is printed; also called recombinant VCP; source: bought: Abnoba, Taipei, Taiwan
Assay: co-IP; recombinant mouse PKM2 (100 pmol) and recombinant human VCP (10 pmol) coincubated 1 h at 25 °C; precipitated with rabbit anti-PKM2 antibody or normal mouse IgG cross-linked to Dynabeads Protein G, 2 h at 25 °C; Western blot for PKM2 and VCP
Settings: both partners purified

T1 sequence (P55072 whole entry): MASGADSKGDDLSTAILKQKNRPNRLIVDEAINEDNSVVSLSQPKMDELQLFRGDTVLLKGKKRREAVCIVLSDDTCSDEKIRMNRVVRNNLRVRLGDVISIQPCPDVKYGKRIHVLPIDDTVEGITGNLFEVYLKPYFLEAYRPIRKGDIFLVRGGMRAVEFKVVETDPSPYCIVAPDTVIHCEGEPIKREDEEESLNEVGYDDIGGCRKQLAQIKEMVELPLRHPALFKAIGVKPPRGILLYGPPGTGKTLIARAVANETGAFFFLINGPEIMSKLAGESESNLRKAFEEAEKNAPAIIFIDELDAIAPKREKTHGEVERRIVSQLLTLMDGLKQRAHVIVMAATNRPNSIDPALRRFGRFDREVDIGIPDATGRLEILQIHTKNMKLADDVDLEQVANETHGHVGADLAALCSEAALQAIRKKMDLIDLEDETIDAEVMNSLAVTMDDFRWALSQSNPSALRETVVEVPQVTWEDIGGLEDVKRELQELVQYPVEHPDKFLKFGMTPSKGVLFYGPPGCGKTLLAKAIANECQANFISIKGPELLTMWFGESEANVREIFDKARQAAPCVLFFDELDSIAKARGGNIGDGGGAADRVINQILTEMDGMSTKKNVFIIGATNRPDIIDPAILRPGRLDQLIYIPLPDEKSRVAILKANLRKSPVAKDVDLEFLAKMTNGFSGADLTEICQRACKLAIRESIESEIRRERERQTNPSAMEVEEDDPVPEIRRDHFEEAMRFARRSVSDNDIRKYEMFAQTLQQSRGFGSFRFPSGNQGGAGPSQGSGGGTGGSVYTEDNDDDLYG

- binding result: binds
B1: Recombinant mouse pyruvate kinase isoform M2 (PKM2) (enzyme)
chain: not shown
notes: pyruvate kinase isoform M2 (PKM2), mouse, recombinant; Commercial protein; No catalogue number, expression host or tag is printed; also called recombinant PKM2; extracellular PKM2; source: bought: Abcam
